The values below come from paper PMC4720517, “Structural basis for activation, assembly and membrane binding of ESCRT-III Snf7 filaments” (eLife, 2015).

First the molecules themselves.
T1: full-length Snf7^(R52E E95K E102K E109K) (Saccharomyces cerevisiae, UniProt P39929 1-240, R52E | E95K | E102K | E109K)
T1 construct: Snf7 (Vps32), S. cerevisiae, full length, charge inversion on α2/3; source: E. coli BL21 or C41, purified (TALON, Superdex-200)
T1 sequence (looked up): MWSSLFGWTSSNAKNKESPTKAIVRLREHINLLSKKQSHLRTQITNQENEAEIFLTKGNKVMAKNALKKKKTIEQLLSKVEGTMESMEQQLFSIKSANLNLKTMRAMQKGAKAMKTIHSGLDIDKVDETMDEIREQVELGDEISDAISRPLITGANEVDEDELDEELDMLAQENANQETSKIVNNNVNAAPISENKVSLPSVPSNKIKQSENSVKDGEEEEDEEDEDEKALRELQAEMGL

B1: Snf7^core (Saccharomyces cerevisiae Snf7 residues 12-150) (domain or fragment, UniProt P39929 12-150, looked up)
chain: NAKNKESPTKAIVRLREHINLLSKKQSHLRTQITNQENEARIFLTKGNKVMAKNALKKKKTIEQLLSKVEGTMESMEQQLFSIESANLNLETMRAMQEGAKAMKTIHSGLDIDKVDETMDEIREQVELGDEISDAISRP
notes: Snf7 (Vps32), S. cerevisiae, core domain, residues 12-150; One molecule in the asymmetric unit; the protofilament is built by the crystal lattice; also called Snf7 core domain; open conformation A; source: E. coli Rosetta, purified (TALON, Superdex-200); not shown: His6-Sumo, N-terminal, cleaved
B2: full-length Snf7^(R52E E88C H118C), MTSL-labeled (natural protein, Saccharomyces cerevisiae, UniProt P39929 1-240, looked up)
chain: T1 sequence (looked up) with E88C, K95E, K102E, K109E, H118C
modifications: MTSL nitroxide spin label on cysteines 88 and 118
notes: Snf7 (Vps32), S. cerevisiae, full length; also called double-labeled Snf7^(R52E E88C H118C); source: E. coli BL21 or C41, purified (TALON, Superdex-200)
B3: full-length Snf7^(R52E K60C A66C), MTSL-labeled (natural protein, Saccharomyces cerevisiae, UniProt P39929 1-240, looked up)
chain: T1 sequence (looked up) with K60C, A66C, K95E, K102E, K109E
modifications: MTSL nitroxide spin label on cysteines 60 and 66
notes: Snf7 (Vps32), S. cerevisiae, full length; also called double-labeled Snf7^(R52E K60C A66C); source: E. coli BL21 or C41, purified (TALON, Superdex-200)
B4: full-length Snf7^(R52E T20C), MTSL-labeled (natural protein, Saccharomyces cerevisiae, UniProt P39929 1-240, looked up)
chain: T1 sequence (looked up) with T20C, K95E, K102E, K109E
modifications: MTSL nitroxide spin label on cysteine 20
notes: Snf7 (Vps32), S. cerevisiae, full length; source: E. coli BL21 or C41, purified (TALON, Superdex-200)
B5: full-length Snf7^(R52E K35C), MTSL-labeled (natural protein, Saccharomyces cerevisiae, UniProt P39929 1-240, looked up)
chain: T1 sequence (looked up) with K35C, K95E, K102E, K109E
modifications: MTSL nitroxide spin label on cysteine 35
notes: as for B4
B6: full-length Snf7^(R52E G140C), MTSL-labeled (natural protein, Saccharomyces cerevisiae, UniProt P39929 1-240, looked up)
chain: T1 sequence (looked up) with K95E, K102E, K109E, G140C
modifications: MTSL nitroxide spin label on cysteine 140
notes: as for B4
B7: full-length Snf7^(R52E R25E H29E K36E) (natural protein, Saccharomyces cerevisiae, UniProt P39929 1-240, looked up)
chain: T1 sequence (looked up) with R25E, H29E, K36E, K95E, K102E, K109E
notes: Snf7 (Vps32), S. cerevisiae, full length, charge inversion on α1; source: E. coli BL21 or C41, purified (TALON, Superdex-200)
B8: full-length Snf7^(R52E H118C), MTSL-labeled (natural protein, Saccharomyces cerevisiae, UniProt P39929 1-240, looked up)
chain: T1 sequence (looked up) with K95E, K102E, K109E, H118C
modifications: MTSL nitroxide spin label on cysteine 118
notes: as for B4
B9: full-length Snf7^(R52E K60C), MTSL-labeled (natural protein, Saccharomyces cerevisiae, UniProt P39929 1-240, looked up)
chain: T1 sequence (looked up) with K60C, K95E, K102E, K109E
modifications: MTSL nitroxide spin label on cysteine 60
notes: as for B4
B10: full-length Snf7^(R52E E88C), MTSL-labeled (natural protein, Saccharomyces cerevisiae, UniProt P39929 1-240, looked up)
chain: T1 sequence (looked up) with E88C, K95E, K102E, K109E
modifications: MTSL nitroxide spin label on cysteine 88
notes: as for B4
B11: full-length Snf7^R52E (natural protein, Saccharomyces cerevisiae, UniProt P39929 1-240, looked up)
chain: T1 sequence (looked up) with K95E, K102E, K109E
notes: purification as in Henne et al., 2012; also called unlabeled Snf7^R52E; source: E. coli BL21 or C41, purified (TALON, Superdex-200)

Series [1] deals with the molecule itself. Description: crystal structure; Snf7^core crystals, conformation A (2.4 Å) and B (1.6 Å), space group P2_1, one molecule in the asymmetric unit; protofilaments formed in the crystal lattice; grown at pH 5.5 (MES:NaOH, NaCl, PEG20,000), 4 °C.
Series [2] concerns the molecule itself. The series is described as follows: negative stain TEM; recombinant Snf7 proteins, protofilament formation seen by negative stain transmission electron microscopy; as in Henne et al., 2012.
The target of series [3] is T1, full-length Snf7^(R52E E95K E102K E109K). The description is as above. The settings on record: both partners purified.
Series [4] deals with B2. The series is described as follows: DEER (pulsed dipolar ESR spectroscopy); MTSL-labeled full-length Snf7 proteins (10-30 μM), alone or diluted with unlabeled Snf7^R52E, incubated with DOPC/DOPS/PI(3)P liposomes at room temperature for 15 min, pelleted by ultracentrifugation; 150 mM NaCl, 20 mM HEPES pD7.4; DEER at 60 K. The settings on record: both partners purified.
In series [5] the target is B3. The description is as above. The settings on record: both partners purified.

Residue numbers refer to the chain shown, from its start. Names may count otherwise.

Regarding B1, the binding result in series [1] is recorded as “binds”.
Regarding B2, in series [2], the binding result is “binds”.
For B3, the binding result in series [2] is reported as “binds”.
Still for that read-out and setting: then B4, with “binds”; and B5, with “binds”.
Same read-out and setting: with B6 the entry was “binds”.
Take B7: the binding result in series [3] is “binds”.
With B8, in series [2], the binding result is “binds”.
On the same count and under the same terms, then B9, with “binds”; and B10, with “binds”.
In the case of B11, the binding result in series [2], in series [4] and in series [5] was “binds” throughout.
